The nanobody polyreactivity screen of Harvey et al. (2022)

Test: yeast display, Sf9 membrane polyspecificity reagent, FACS + sequencing; frameworks hold sequencing errors
How it was run: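 In a synthetic yeast display library (Saccharomyces cerevisiae BJ5465), nanobody expression was induced with galactose for 36–48 hours. FACS gates were set low and high (top ~1%) using anti-HA fluorescence for expression and streptavidin fluorescence for binding of the Sf9 membrane reagent. Each polyreactivity label is drawn from the gate of origin.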

Row | Sequence | polyreactivity (PSR sort gate)
1 | QVQLVESGGGLVQAGGSLRLSCAASGRTFGHYAMGWYRQAPGKERELVAAITYSGGSTYADSVKGRFTISRDNAKNTVYLQMNSLKPEDTAVYYCNKRQKGYTRSYRYIVWYDYWGQGTQVTVSS | high polyreactivity
2 | QVQLVESGGGLVQAGGSLRLSCAASGRTFGINAMGWYRQAPGKERELVAVISFGDGGTYYADSVKGRFTISRDNAKNTVYLQMNSLKPEDSAVYYCAAEVVAQMNYWGQGTQVTVSS | low polyreactivity
3 | QVQLVESGGGLVQAGGSLRLSCAASGRTFGIYAMGWYRQAPGKERELVAAISCGGGSTYYADSVKGRFTISRDNAKNTVYLQMNSLKPEYTAVYYCAAQAQWDGQMDYWGQGTQVTVSS | low polyreactivity
4 | QVQLVESGGGLVQAGGSLRLSCAASGRTFGKNAMGWYRQAPGKERELVAAISTSGGRTYYADSVMGRFTISRDNAKNTVYLQMNSLIPEDPAVYYCAAVLYDTRPVYGCESWGQGTQVTVSS | high polyreactivity
5 | QVQLVESGGGLVQAGGSLRLSCAASGRTFGKYARGWYRQAPGKERELVASITFSSGSTYYADSVKGRFTISRDNAKNTVYLQMNSLKPEDTAVYYCAKRGWGIYDYWGQGTQVTVSS | low polyreactivity
6 | QVQLVESGGGLVQAGGSLRLSCAASGRTFGLNGMGWYRQAPGKEREFVATITGSGTSTYYADSVKGRFTISRDNAKNTVYLQMNSLKPEDTAVYYCAALSGLWGYHYYHEYYYWGQGTQVTVSS | low polyreactivity
7 | QVQLVESGGGLVQAGGSLRLSCAASGRTFGLYAMGWYRPAPGKERELVADINGSGTRTYYADSVKGRFTISRDYAKNTVYLQMNSLKPEDTAVYYCYGRYHWLYYWGQGTQVTVSS | high polyreactivity
8 | QVQLVESGGGLVQAGGSLRLSCAASGRTFGLYAMGWYRQAPGKERELVAAIDQSTGSTYYADSVKGRFTISRDNAKNTVYLQMNRLKPEDTAVYYCAAEEASTVRYYWYDYWGQGTQVTVSS | high polyreactivity
9 | QVQLVESGGGLVQAGGSLRLSCAASGRTFGLYAMGWYRQAPGKERELVAAISWGGGRTYYADSVKGRFTISRDNAKNTVYLQMNSLKPEDNAVYYCNAVYSPRYYVGGYDYWGQGTQVTVSS | high polyreactivity
10 | QVQLVESGGGLVQAGGSLRLSCAASGRTFGNNAMGWYRQAPGKERELVAAITGSGGSTYYADSVKGRFTISRDNAKNTVYLQMNSLKPEDTAVYYCAAVVYGAVRGSRYPYYYWGQGTQVTVSS | high polyreactivity
11 | QVQLVESGGGLVQAGGSLRLSCAASGRTFGNYAMGWYRQAPGKERELVADITRRGGSTSYADSVKGRFTISRDNAKNTVYLQMNSLKPEDTAVYYCNADSYLPAIRYDYWGQGTQVTVSS | low polyreactivity
12 | QVQLVESGGGLVQAGGSLRLSCAASGRTFGPNAMGWYRQAPGKERELVAVISGSTGSTYYADSVKGRFTISRDNAKNTVYLEMNSLKPEDTAVYYCAAKSEFYDWYRSYQYEYYYWGQGTQVTVSS | high polyreactivity
13 | QVQLVESGGGLVQAGGSLRLSCAASGRTFGPYAMGWYRQAPGKERELVAAITSSGGSTYYADSVKGRFTISRDNAKNTVYLQMNSLKPEDTAVYYCNKLYWRQSQDYDYWGQGTQVTVSS | low polyreactivity
14 | QVQLVESGGGLVQAGGSLRLSCAASGRTFGPYAMGWYRQAPGKERELVAVISKSGTRTYYADSVKGRFTISRDNAKNTVYLQMNSLKPEETAVYYCAARSPYSYRYDYWGQGTQVTVSS | high polyreactivity
15 | QVQLVESGGGLVQAGGSLRLSCAASGRTFGPYEMGWYTQAPGKERELVASISSADSTYYADSVKGRFTISRDNAKNTVYLQMYSLKPEDTAVYYCAAPSVGYYDPTDFDYWGQGTQVTVSS | low polyreactivity
16 | QVQLVESGGGLVQAGGSLRLSCAASGRTFGQNAMGWYRQAPGKERELVAAISSGGSTYYADSVKGRFTISRDNAKNTVYLQMNSLKPEDTAVYYCAVSSWDRGYWYYYWGQGTQVTVSS | high polyreactivity
17 | QVQLVESGGGLVQAGGSLRLSCAASGRTFGQNAMGWYRQAPGKERELVASIRSGGITDYADSVKGRFTISRDNAKNTVYLQMNSLKPEDTAVYYCNAEGVWWSTRYDSWGQGTQVTVSS | low polyreactivity
18 | QVQLVESGGGLVQAGGSLRLSCAASGRTFGQNAMGWYRQAPGKERELVASIRSGGITDYADSVKGRFTISRDNAKNTVYLQMNSLKPEDTAVYYCNDEGVWWSTRYDSWGQGTQVTVSS | low polyreactivity
19 | QVQLVESGGGLVQAGGSLRLSCAASGRTFGRNAMGWYRQAPGKERELVAAISYGGGSTYYADSVKGRFTISRDNAKNTVYLQMNSLKPEDTAVYYCAAPTDDSSLGVYKHGYWGQCTQVTVSS | low polyreactivity
20 | QVQLVESGGGLVQAGGSLRLSCAASGRTFGRYAMGWYRQAPGKAREFVAAISSSGGSTSYADSVKGRFTISRDNAKNTVYLQMNSLKPEDTAVYYCNADAYRITRYGYDYWGQGTQVTVSS | high polyreactivity
21 | QVQLVESGGGLVQAGGSLRLSCAASGRTFGRYAMGWYRQAPGKERDLVATITSGGSTNYADSVKGRFTISRDNAKNTVYLQMNSLKPVDTAVYYCAAEFSPSRWAYSEGALRYNYWGHGTQVTVSS | low polyreactivity
22 | QVQLVESGGGLVQAGGSLRLSCAASGRTFGRYAMGWYRQAPGKERELVAAINRGGSTKYADSVKGRFTISRDNAKNTVYLQMNSLKPEDTAVYYCAKDRHPALHYDYWGQGTQVTVSS | low polyreactivity

Row | Sequence | polyreactivity (PSR sort gate)
23 | QVQLVESGGGLVQAGGSLRLSCAASGRTFGRYAMGWYRQAPGKERELVAAITRGGGSTYYADSVKGRFTISRDNAKYTVYLQMNSLKPEDTAVYYCAARNFRSPYGYDYWGQGTQVTVSS | high polyreactivity
24 | QVQLVESGGGLVQAGGSLRLSCAASGRTFGRYTMGWYIQAPGKERELGASISNTARTNYADSVKGRFTISRDNAKNTVYLQMNSLKPEDTAVYYCAAGFVRYRGTRDYWGQGTQVTVSS | low polyreactivity
25 | QVQLVESGGGLVQAGGSLRLSCAASGRTFGRYTMGWYRQAPGKERELVADITSGWSTYADSVKGRFTISRDNAKNSVYLQMNSLKPEDTAVYYCNADRTYPEPAEYYYWGQGTQVTVSS | low polyreactivity
26 | QVQLVESGGGLVQAGGSLRLSCAASGRTFGSNAMGWYRQAPGKERELVAAITRRGGSTYYADSVKGRFTISRDNAMNTVYLQMNSLKPEDTAVYYCATDPVSTRGSDYWGQGTQVTVSS | low polyreactivity
27 | QVQLVESGGGLVQAGGSLRLSCAASGRTFGSNAMGWYRQAPGKERELVAVITTSGGSTYYADSVKGRFTISRDNAKNTVYLQMNSLKPEDTAVYYCNKVGWYHNYYYWGQGTQVTVSS | high polyreactivity
28 | QVQLVESGGGLVQAGGSLRLSCAASGRTFGSYAMGWYRQAPGKERELVAAISKGGGSTYYADSVKGRFTISRDNAKNTVYLQMNSLKPEDTAVYYCAKRRFEYYYYWGQGTQVTVSS | high polyreactivity
29 | QVQLVESGGGLVQAGGSLRLSCAASGRTFGTKTMGWYRQAPGKERELVAGISRSGGRTYYADSVKGRFTISRDNAKNTVYLQMNSLKPEDTAVYYCAAVSYYQPLRRIMDYWGQGTQVTVSS | high polyreactivity
30 | QVQLVESGGGLVQAGGSLRLSCAASGRTFGTNAMGWYRQAPGKERELVAAISRRGGSTYYADSVKGRFTISRDNAKNTVYLQMNSLKPEDTAVYYCNVVTKFTGRGYDYWGQGTQVTVSS | high polyreactivity
31 | QVQLVESGGGLVQAGGSLRLSCAASGRTFGTYAIVWYRPAPGKERELVAAITRRGGSTYYADSVKGRFTISRDNAKNTVYLQMNSLKPEDTAVYYCAARWFRYVPYSFPYLYKYDYWGQGTQVTVSS | low polyreactivity
32 | QVQLVESGGGLVQAGGSLRLSCAASGRTFGTYAMGWYRQAPGKERELVAAISRRGGTTYYADSVKGRFTISRDNAKNTVYLQMNSLKPEDTAVYYCARASWSITTVLSTMDYWGQGTQVTVSS | high polyreactivity
33 | QVQLVESGGGLVQAGGSLRLSCAASGRTFGTYAMGWYRQAPGKERELVAAISRRGGTTYYADSVKGRFTISRDNAKNTVYLQMNSLKPEDTAVYYCNVYRVSFSVVPLGYWGQGTQVTVSS | high polyreactivity
34 | QVQLVESGGGLVQAGGSLRLSCAASGRTFGTYAMGWYRQAPGKERELVASITSGDSTNYADSVKGRFTISRDNAKNTVYLQMNSLKPEDTAVYYCNADIEFYVLFAYWGQGTQVTVSS | low polyreactivity
35 | QVQLVESGGGLVQAGGSLRLSCAASGRTFGVNAMGWYRQAPGKERELVAAISYSGASTFYADSVKGRFTISRDNAKNTVYLQMNSLKPEDTAVYYCDARGYYGGFYYWGQGTQVTVSS | high polyreactivity
36 | QVQLVESGGGLVQAGGSLRLSCAASGRTFGVYMGWYRQAPGKERELVAVISSGDSTNYADSVKGRFTISRDNAKNTVYLQMNSLKPEDTAVYYCNAYGSDRLTLDDYWGQGTQVSVSS | low polyreactivity
37 | QVQLVESGGGLVQAGGSLRLSCAASGRTFGVYVMGWYRHAPGKERELVAFITISGGSTNYADSVKGRFTISRDNAKNTVYLQMNSLKPDDTAVYYCAARTYYGYDYWGQGNQVTVSS | high polyreactivity
38 | QVQLVESGGGLVQAGGSLRLSCAASGRTFGWNGMGWYRQAPGKERELVAVISSGGSTKYADSVKGRFTISRDNAKNTVYLQMNSLKPEDTAVYYCAKDWVRSGRRKMDYWGQGTQVTVSS | low polyreactivity
39 | QVQLVESGGGLVQAGGSLRLSCAASGRTFGWYAMGWYRQAPGKERELVAAINNSGDITYYADSVKGRFTISRDNAKNTVYVQMNSLKPEDTAVYYCAATAGYYGYPSEYDYWGQGTQVTVSS | low polyreactivity
40 | QVQLVESGGGLVQAGGSLRLSCAASGRTFGWYSMGWYRQAPGKERELVAAINNSVDITYYSDSVKGRFTISRDNAKNSVYLQMNSLKPEDTAVYYCNRDARSGFVTIYATDYDYWGQGTQVTVSS | low polyreactivity
41 | QVQLVESGGGLVQAGGSLRLSCAASGRTFGYNAMGWYRQAPGKERELVAAISRGDSTNYADSVKGRFTISRDNAKNTVYLQMNSLKPEDTAVYYCAAAFPRYRSRAIRVDYWGQGTQVTVSS | high polyreactivity
42 | QVQLVESGGGLVQAGGSLRLSCAASGRTFGYNAMGWYRQAPGKERELVAAITWSGGSTYYADSVKGRFTISRDNAKNTVYLQMNSLKPEDTAVYYCNAYQRLSRAYGYWGQGTQVTVSS | high polyreactivity
43 | QVQLVESGGGLVQAGGSLRLSCAASGRTFGYNGKGWYRQAPGKERELVAAINSGGNTNYAESVKGRFTISRDNAKNTVYLQMNSLKPEDTAVYYCAKYGTLYEPVPNEYDNWGQGTQVTVSS | low polyreactivity
